Experimental data reported in publication PMC6941110, “Mutation of Aspartate 238 in FAD Synthase Isoform 6 Increases the Specific Activity by Weakening the FAD Binding” (International Journal of Molecular Sciences, 2019).

Assays:
Experiment in all cases: purified protein
Format in all cases: biochemical, Homo sapiens
[1] = test system: T1, Nc1ncnc2c1ncn2[C@@H]1O[C@H](COP(=O)(O)OP(=O)(O)OP(=O)(O)O)[C@@H](O)[C@H]1O; details: forward reaction, 5 mM MgCl2, 50 mM Tris/HCl pH 7.5, 37 °C
T1 construct: 320-residue isoform 6, FADSy domain only, lacks N-terminal FADHy domain; monomer

O=P(O)(O)OP(=O)(O)O = test system: T2, O=P(O)(O)OP(=O)(O)O; details: reverse reaction, 0.5 µM FAD, 5 mM MgCl2, 50 mM Tris/HCl pH 7.5, 37 °C
T2 construct: 320-residue isoform 6, FADSy domain only, lacks N-terminal FADHy domain; monomer

[2] = test system: T3, Cc1cc2nc3c(=O)[nH]c(=O)nc-3n(C[C@H](O)[C@H](O)[C@H](O)COP(=O)(O)O)c2cc1C; details: forward reaction, 100 µM ATP, 5 mM MgCl2, 50 mM Tris/HCl pH 7.5, 37 °C
T3 construct: 320-residue isoform 6, FADSy domain only, lacks N-terminal FADHy domain; monomer

hFADS6 (human FAD synthase isoform 6) (Homo sapiens), sequence (chain, as listed by the source): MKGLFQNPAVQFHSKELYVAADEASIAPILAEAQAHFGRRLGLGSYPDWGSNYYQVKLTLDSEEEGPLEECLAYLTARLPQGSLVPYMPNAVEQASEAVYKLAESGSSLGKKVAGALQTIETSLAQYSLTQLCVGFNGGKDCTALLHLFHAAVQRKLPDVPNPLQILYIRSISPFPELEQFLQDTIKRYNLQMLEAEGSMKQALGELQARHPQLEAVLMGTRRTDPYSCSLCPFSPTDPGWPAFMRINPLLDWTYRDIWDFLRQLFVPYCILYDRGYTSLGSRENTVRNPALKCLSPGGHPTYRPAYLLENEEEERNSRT
hFADS6 (human FAD synthase isoform 6) (Homo sapiens; D505A), sequence (chain, as listed by the source D505A): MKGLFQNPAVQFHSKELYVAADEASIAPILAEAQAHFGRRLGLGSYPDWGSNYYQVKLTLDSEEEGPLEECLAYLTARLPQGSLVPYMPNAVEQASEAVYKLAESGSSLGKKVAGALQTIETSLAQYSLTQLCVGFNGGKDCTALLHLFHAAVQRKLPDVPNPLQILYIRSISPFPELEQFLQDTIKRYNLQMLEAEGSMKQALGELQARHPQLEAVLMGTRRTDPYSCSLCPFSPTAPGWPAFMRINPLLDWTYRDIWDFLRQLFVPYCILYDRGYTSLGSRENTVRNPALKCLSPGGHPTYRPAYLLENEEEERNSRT

For “hFADS6 (human FAD synthase isoform 6) (Homo sapiens; D505A)”, the Km ([1]; 3 µM FMN) was 44 ± 4 µM, the kcat ([1]; 3 µM FMN) was 0.093 ± 0.003 s⁻¹ and the Km (O=P(O)(O)OP(=O)(O)O) was 60 ± 8 µM. It also gave a Km [2] of 1.3 ± 0.3 µM and a kcat [2] of 0.103 ± 0.007 s⁻¹.
In the case of “hFADS6 (human FAD synthase isoform 6) (Homo sapiens)”, the Km ([1]; 2 µM FMN) is reported as 6.9 ± 0.5 µM, the kcat ([1]; 2 µM FMN) is reported as 0.050 ± 0.001 s⁻¹ and the Km (O=P(O)(O)OP(=O)(O)O) is reported as 42 ± 6 µM. It also gave a Km [2] of 0.13 ± 0.01 µM and a kcat [2] of 0.047 ± 0.001 s⁻¹.
